Data as given in patent publication US6395526B1, “DNA polymerase” (Takara Shuzo Co., Ltd., priority 1995, dated 2002).
“Also recorded” adds a separate entry of the source.

Experiments:
[1] = system: 32P-labeled DNA fragment from pUC119 vector; experiment: Associated exonuclease activity; format: biochemical; conditions: 75° C.
Procedure: The exonuclease activity of the DNA polymerase of the present invention was assessed as follows: As a substrate for 5′→3′ exonuclease activity detection, a DNA fragment labeled with ^32P at the 5′-end was prepared by a process comprising digesting a pUC119 vector (manufactured by Takara Shuzo Co., Ltd.) with SspI (manufactured by Takara Shuzo Co., Ltd.), separating the resulting 386 bp DNA fragment by agarose gel electrophoresis, purifying the fragment, and labeling with [γ-^32P]-ATP and polynucleotide kinase. Also, as a substrate for 3′→5′ exonuclease activity detection, a DNA fragment labeled with ^32P at 3′-end was prepared by a process comprising digesting a pUC119 vector with Sau3AI, separating the resulting 341 bp DNA fragment by agarose gel electrophoresis, purifying the fragment, and carrying out a fill-in reaction using […] (manufactured by Amersham) and the Klenow fragment (manufactured by Takara Shuzo Co., Ltd.). […] The radioactivity existing in the supernatant was assayed using a liquid scintillation counter, and the amount of degradation by the exonuclease activity was calculated.
In the figure, the abscissa indicates the reaction time, and the ordinate indicates the ratio of radioactivity released into the supernatant relative to the radioactivity contained in the entire reaction mixture. […]

λ-DNA = conditions: reported, enzyme used alone; cited from earlier work

## DNA Polymerase of the Present Invention: complex of first (ORF3, SEQ ID NO:2) and second (ORF4, SEQ ID NO:4) DNA polymerase-constituting proteins from Pyrococcus furiosus
[1]; 3′-end labeled 341 bp fragment
  3′→5′ exonuclease activity: potent; also recorded: of the same level as that of the Pfu DNA polymerase
[1]; 5′-end labeled 386 bp fragment
  5′→3′ exonuclease activity: no 5′→3′exonuclease activity was observed

## Taq DNA Polymerase: Taq DNA polymerase derived from Thermus aquaticus (TaKaRa Taq, manufactured by Takara Shuzo Co., Ltd.) [reference compound]
λ-DNA
  strand length of DNA amplifiable by PCR: difficult to amplify a DNA fragment of not less than 10 kbp
